The text below walks through data of IntAct's records for PubMed 20389280.

To fix the notation:
B1: Kelch-like protein 20 (Homo sapiens), Q9Y2M5 (parent)
chain: MEGKPMRRCTNIRPGETGMDVTSRCTLGDPNKLPEGVPQPARMPYISDKHPRQTLEVINLLRKHRELCDVVLVVGAKKIYAHRVILSACSPYFRAMFTGELAESRQTEVVIRDIDERAMELLIDFAYTSQITVEEGNVQTLLPAACLLQLAEIQEACCEFLKRQLDPSNCLGIRAFADTHSCRELLRIADKFTQHNFQEVMESEEFMLLPANQLIDIISSDELNVRSEEQVFNAVMAWVKYSIQERRPQLPQVLQHVRLPLLSPKFLVGTVGSDPLIKSDEECRDLVDEAKNYLLLPQERPLMQGPRTRPRKPIRCGEVLFAVGGWCSGDAISSVERYDPQTNEWRMVASMSKRRCGVGVSVLDDLLYAVGGHDGSSYLNSVERYDPKTNQWSSDVAPTSTCRTSVGVAVLGGFLYAVGGQDGVSCLNIVERYDPKENKWTRVASMSTRRLGVAVAVLGGFLYAVGGSDGTSPLNTVERYNPQENRWHTIAPMGTRRKHLGCAVYQDMIYAVGGRDDTTELSSAERYNPRTNQWSPVVAMTSRRSGVGLAVVNGQLMAVGGFDGTTYLKTIEVFDPDANTWRLYGGMNYRRLGGGVGVIKMTHCESHIW

Variants of B1 are the subject of the experiment. To be noted: with cul3_human CUL3, Q13618.
Regarding L148A, the “effect of a mutation on the interaction” value is given as “disrupting interaction”.
The same measure for C146A: “disrupting interaction”; for V109A: “disrupting interaction”.
For I111A, the “effect of a mutation on the interaction” value is recorded as “disrupting interaction”.
As for L150A, the entry is “disrupting interaction”.
